Consider 21 sequences from the supplement of paper PMC9170038.

The data set concerns MS2 coat protein. Description: apparent KD of MS2 coat protein; designed switch direction (-1 OFF switch, 1 ON switch): -1; higher = weaker reporter binding. Summed up: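 On Illumina chips, designed RNA switches with common flanks were made by stalled E. coli RNA polymerase. Titrations with SNAP-549-labelled MS2 coat protein, doubling from 0.7 or 1.5 nM to 3 µM, were done with no input, with 200 uM small-molecule ligand, or with an oligonucleotide input. Apparent KD is the median per design over clusters, from curve fits of normalised cluster fluorescence.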

Where [1] appears, read: Eterna round: R95, input ligand: microRNA oligo, concentration not stated.
Where [2] appears, read: Eterna round: R95, input ligand: FMN 200 uM.
[3] abbreviates: Eterna round: R95, input ligand: none.
The mark [4] stands for this setting: input ligand: microRNA oligo, concentration not stated.

As to “UUCUUUGUUGUGAGGAUAUCGUAUUCUUUUUGUUACGAGAAGGCACAUGAGGAUCACCCAUGUUUCUUGAUGUU [JR_BMOE4_Sub068] (puzzle: Brourd's mod of Exclusion 4)”, the “apparent KD of MS2 coat protein” value under setting [1] stood at 16.7 nM.
As for “UUGAAGUAAGGAUAUACAUGAGGAUCACCCAUGUGGAGGAAGGUGAUGGGAGUAGGUAGUAGAAGGUACGAGGA [JR_Exclu3_Sub063] (puzzle: Exclusion 3)”, the “apparent KD of MS2 coat protein” value amounted to 124 nM under setting [2], 100 nM under setting [1] and 220 nM under setting [3].
As to “UUGAGCAGACGGAGAUCCAACAUGAGGAUCACCCAUGUCUCAUAAGCUUUUUGUUCAUCUUAUUGUACCUUGGUGCU [Mat - Sensor v3 - turn-off var 1 - JL Mod - D23] (puzzle: Sensor v3, turn-off variant 1)”, the “apparent KD of MS2 coat protein” value runs as follows: under setting [2], 47 nM; under setting [1], 8.53 nM; under setting [3], 40.5 nM.
For “UUGGAGAUAGGAUAUACGAGGAGAGUUGAGGGAACGCGAUGACAUGAGGAUCACCCAUGUAGAAGGAUCAGGAG [JR_Exclu2_Sub070] (puzzle: Exclusion 2)”, the “apparent KD of MS2 coat protein” value runs as follows: under setting [2], 28.2 nM; under setting [1], 36 nM; under setting [3], 40.3 nM.
For “UUGGUGUCAGGAUAUGCUUAAUGUAUUUUAUUAUAAUAUAUACAUGAGGAUCACCCAUGUAGAAGGGACAUUGU [LRO-Excl2-08-Fireball XL5] (Eterna round: R97, puzzle: Exclusion 2)”, the “apparent KD of MS2 coat protein” value is 125 nM (input ligand: FMN 200 uM) and 154 nM (input ligand: none).
Consider “UUGGUUAUCUAUGGAAGUAACAUGAGGAUCACCCAUGUAUGUCUUGUUUUUUGUUCGUCAUAGGCCUUUUGUUUGGA [JR_SV3TOV1_Sub023] (puzzle: Sensor v3, turn-off variant 1)”, for which the “apparent KD of MS2 coat protein” value stood at 24.9 nM under setting [2], 24.9 nM under setting [1] and 30.3 nM under setting [3].
As for “UUGGUUGUGGUAGGAUAUCCGUUGGAAACCGUCGGAGAAGGACCACAGUCACUGGGUCUUUGUCUGGUGGAGUGGAAGAACCAU [pwkr exNG1 F6.20] (Eterna round: R96, puzzle: Exclusion NG 1)”, the “apparent KD of MS2 coat protein” value reads like this: (input ligand: FMN 200 uM) 283 nM; under setting [4], 157 nM; (input ligand: none) 218 nM.
Regarding “UUGUACAGAGGAUAUACAUGAGGAUCACCCAUGUGUUUCAGCUAGGAGACUAGCGAAAGUAGAAGGCUGUACUC [salish99_ex3_r4_015] (Eterna round: R97, puzzle: Exclusion 3)”, the “apparent KD of MS2 coat protein” value reads like this: (input ligand: FMN 200 uM) 23.9 nM; (input ligand: none) 11.1 nM.
The corresponding values for “UUGUAGGGAGGAUAUCAGAAGCUCCACAUGAGGAUCACCCAUGUAGCCGCUGCUGGAUUCUGAGAAGGCUUGGGUU [Eternabot (L2) Solution 8] (Eterna round: R97, puzzle: Exclusion 5)” are 58.8 nM and 58.3 nM.
Taken in the same sequence, the figures for “UUGUGCACGCUGCGAUCCUACAUGAGGAUCACCCAUGUGGUCUGGUGGCGUGGGUCACCGGACUUGGCUCGUCUUGC [salish99_S_TOV1_R5_073] (Eterna round: R97, puzzle: Sensor, turn-off variant 1)” were 28.8 nM and 28.6 nM.
As to “UUGUUAUAUGAAGGAUAUACUUAACAUGAGGAUCACCCAUGUGGUGUUGUGAGUGAGUGAGUUUAGUAGAAGGUCAAGUAUUUU [JMF's solution 52] (Eterna round: R96, puzzle: Exclusion NG 2)”, the “apparent KD of MS2 coat protein” value (input ligand: FMN 200 uM) was found to be 509 nM, the “apparent KD of MS2 coat protein” value under setting [4] came out at 368 nM and the “apparent KD of MS2 coat protein” value (input ligand: none) is 377 nM.
In the case of “UUUAAAUGAGGAUAUAGGAUCUUAGACAUGAGGAUCACCCAUGUGAAAUCAGACCUAGUCCUAGAAGGCGUAUGAC [Eternabot (L1) Solution 100] (Eterna round: R97, puzzle: Exclusion 5)”, the “apparent KD of MS2 coat protein” value is, setting by setting: (input ligand: FMN 200 uM) 13.5 nM; (input ligand: none) 12.4 nM.
Regarding “UUUAAUCAUGUAGGAUAUGCGUGGCGAAGCUAUGCAGAAGGACAUGAGGAUCACCCAUGUUCUAGCGUCUGCGUACAGAUGCGG [13th something] (Eterna round: R96, puzzle: Exclusion NG 1)”, the “apparent KD of MS2 coat protein” value turned out to be 229 nM (input ligand: FMN 200 uM), 35.3 nM under setting [4] and 39.9 nM (input ligand: none).
The corresponding values for “UUUAAUCAUGUAGGAUAUGCGUGGCGAAGCUAUGCAGAAGGACAUGAGGAUCACCCAUGUUCUAGCGUCUGCGUACAGAUGCUA [JL ENG1 1.36] (Eterna round: R96, puzzle: Exclusion NG 1)” are 334 nM, 33 nM and 47 nM.
As to “UUUAAUCGUGACAUGGGUGACAUGAGGAUCACCCAUGUCACAAGCUUUUUGCUCGUCUUAUAAUUAACCCAUGUCAC [LRO Sensor-off var1-11 mod of Stov1-13-A1 by Brourd] (Eterna round: R97, puzzle: Sensor, turn-off variant 1)”, the “apparent KD of MS2 coat protein” value runs as follows: (input ligand: FMN 200 uM) 15.1 nM; (input ligand: none) 15.6 nM.
Consider “UUUAAUUUUUUUUUUUUACAAGCUUUUUGCUCGUCUUAUACAUGAGGAUCACCCAUGUAAAUGAGGGAUAAAUUAUC [JMF 38] (puzzle: Sensor v3, turn-off variant 2)”, for which the “apparent KD of MS2 coat protein” value is, setting by setting: under setting [2], 15.4 nM; under setting [1], 21.3 nM; under setting [3], 15.7 nM.
For “UUUAAUUUUUUUUUUUUACAAGCUUUUUGCUCGUCUUAUACAUGAGGAUCACCCAUGUAGGUGAGGAGUAAAUUAUC [JMF 62] (puzzle: Sensor v3, turn-off variant 2)”, the “apparent KD of MS2 coat protein” value runs as follows: under setting [2], 15.5 nM; under setting [1], 111 nM; under setting [3], 14.8 nM.
The corresponding values for “UUUAAUUUUUUUUUUUUACAAGCUUUUUGCUCGUCUUAUACAUGAGGAUCACCCAUGUAGGUGGGAGAUAAAUUAUC [JMF 23] (puzzle: Sensor v3, turn-off variant 2)” are 87.8 nM, 392 nM and 131 nM.
“UUUAAUUUUUUUUUUUUACAAGCUUUUUGCUCGUCUUAUACAUGAGGAUCACCCAUGUGGAUGGAAGAUAAAUUAUC [JMF 9] (puzzle: Sensor v3, turn-off variant 2)”: the “apparent KD of MS2 coat protein” value is 16.2 nM under setting [2], 18.6 nM under setting [1] and 16.5 nM under setting [3].
Taken in the same sequence, the figures for “UUUAAUUUUUUUUUUUUACAAGCUUUUUGCUCGUCUUAUACAUGAGGAUCACCCAUGUGGGUAAGAGAUAAAUUAUC [JMF 13] (puzzle: Sensor v3, turn-off variant 2)” were 24.9 nM, 36.3 nM and 27.8 nM.
“UUUAAUUUUUUUUUUUUACAAGCUUUUUGCUCGUCUUAUACAUGAGGAUCACCCAUGUGGGUAGAAAGUAAAUUAUC [JMF 46] (puzzle: Sensor v3, turn-off variant 2)”: the “apparent KD of MS2 coat protein” value worked out at 13.7 nM under setting [2], 43.6 nM under setting [1] and 15.4 nM under setting [3].
